Molecular target: T1, α-cobratoxin (Naja kaouthia, UniProt P01391)
T1 construct: also called long chain αNTx from Naja kaouthia; source: bought: Latoxan
Experiment: DELFIA (dose-response, capture format)
Details: both partners purified

Row | Binder | binding result
1 | TPL0629_01_G06 (VHH, also called anti-αNTx VHH) VHH: QVQLQESGGGLVQAGGSLRLSCAASGRAFSSYTMGWFRQAPGDMRELVAQITSSGSSTYHIDSVEGRFAISRDNAKNTVYLQMNSLQPEDAAIYYCAGGLNAYQYWGQGTQVTVSS | no binding (tested: 1 µM)
2 | TPL0629_01_A07 (VHH, also called anti-αNTx VHH) VHH: QVQLQESGGGLVQAGGSLRLSCTASEGTVSYSTVGWFRQAPGGGRDLVAQSGSSDEDTHVAGSVKGRFTISRDNTNNTVYLQMSSLKPEDSAVYYCAAAPGDQYKYWGQGTQVTVSS | no binding (tested: 1 µM)
3 | TPL0629_01_D11 (VHH, also called anti-αNTx VHH; monovalent VHH) VHH: QVQLQESGGGLVQAGGSLRLSCAGSGDALGSYTMGWFRQAPGGGRDLVAQISVDGSSTYHLDSVRGRFTASRDNAKNTVYLEMNSLNSEDTAVYYCAAAPLLRGNYDYWGQGTQVTVSS | no binding (tested: 1 µM)
